Source: the supplement of paper PMC7125110
± gives the standard error. Variants at the floor of the assay were thinned out.

B1: glmS ribozyme (parent)
chain: AUAAAAGCGCCAGAACUACAGAAAUGUAGUUGACGAGGAGGAGGUUUAUCGAAUUUUCGGCGGAUGCCUCCAAA

Columns and labels:
Details in all cases: with glucosamine-6-phosphate
glucosamine-6-phosphate [1] = variants of: B1; assay: self-cleavage kobs at 40 uM GlcN6P; higher = faster cleavage; RNA array
How it was run: (§1)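 A hybridised Cy3 probe tracked barcoded ribozyme variants, transcribed in situ by E. coli RNA polymerase on sequenced MiSeq chips, at 37 °C. The variants received 40 μM to 10 mM glucosamine-6-phosphate in HEPES/KCl/Mg(OAc)2 buffer. kobs came from decay fits and kcat and KM from weighted Michaelis–Menten fits.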

glucosamine-6-phosphate [2] = variants of: B1; assay: self-cleavage kobs at 160 uM GlcN6P; higher = faster cleavage; RNA array
How it was run: as §1

glucosamine-6-phosphate [3] = variants of: B1; assay: self-cleavage kobs at 2500 uM GlcN6P; higher = faster cleavage; RNA array
How it was run: as §1

glucosamine-6-phosphate [4] = variants of: B1; assay: self-cleavage kobs at 10000 uM GlcN6P; higher = faster cleavage; RNA array
How it was run: as §1

glucosamine-6-phosphate [5] = variants of: B1; assay: self-cleavage kobs at 640 uM GlcN6P; higher = faster cleavage; RNA array
How it was run: as §1

Variant | self-cleavage kobs at 40 uM GlcN6P (glucosamine-6-phosphate [1]) [s⁻¹] | self-cleavage kobs at 160 uM GlcN6P (glucosamine-6-phosphate [2]) [s⁻¹] | self-cleavage kobs at 2500 uM GlcN6P (glucosamine-6-phosphate [3]) [s⁻¹] | self-cleavage kobs at 10000 uM GlcN6P (glucosamine-6-phosphate [4]) [s⁻¹] | self-cleavage kobs at 640 uM GlcN6P (glucosamine-6-phosphate [5]) [s⁻¹]
G7A A15G C61U C71U | < 1e-05 | < 1e-05 | < 1e-05 |  | 
A6G A15G G66U C70U | < 1e-05 |  |  |  | 
G7A A36C U54G | < 1e-05 |  |  | < 1e-05 | 
A6G G7A G51C | < 1e-05 |  |  | < 1e-05 | 
G7C A33U G41A U56A C71U | < 1e-05 |  |  |  | 
G7C C8G C50G U55A | 7.03e-05 ± 2.9e-05 |  |  |  | 
G7A C10U U45G C70G | < 1e-05 |  | < 1e-05 | < 1e-05 | < 1e-05
A6G G44U C61U | < 1e-05 | < 1e-05 | < 1e-05 | < 1e-05 | < 1e-05
A6U A12C U56A G62A | < 1e-05 |  |  |  | 
A6U G7U C58G U69G | 0.000141 ± 4.3e-05 |  |  | 0.000123 ± 3.5e-05 | 
G7A A48C G59A A64G | < 1e-05 |  |  | < 1e-05 | 
A6G C8A G32C | < 1e-05 |  | < 1e-05 |  | 
G7C A14G G38C U54G | < 1e-05 |  |  |  | 
G7C G9U | < 1e-05 |  |  | < 1e-05 | < 1e-05
A6U C8G A48U G62C | < 1e-05 |  |  |  | 
G7C C8U A39U A53U | < 1e-05 |  |  | < 1e-05 | 
A6G U57C | < 1e-05 | < 1e-05 | < 1e-05 |  | < 1e-05
A6C G35U A36G G63U | < 1e-05 |  |  |  | 
A6U C11U G44U | < 1e-05 |  | < 1e-05 | < 1e-05 | < 1e-05

Variant | self-cleavage kobs at 40 uM GlcN6P (glucosamine-6-phosphate [1]) [s⁻¹] | self-cleavage kobs at 160 uM GlcN6P (glucosamine-6-phosphate [2]) [s⁻¹] | self-cleavage kobs at 2500 uM GlcN6P (glucosamine-6-phosphate [3]) [s⁻¹] | self-cleavage kobs at 10000 uM GlcN6P (glucosamine-6-phosphate [4]) [s⁻¹] | self-cleavage kobs at 640 uM GlcN6P (glucosamine-6-phosphate [5]) [s⁻¹]
G7A G29A U55C G60U | < 1e-05 |  | < 1e-05 |  | 
G7C C16U U31A G41U | < 1e-05 |  | < 1e-05 | < 1e-05 | 
G7A G41U A42G A52G | < 1e-05 |  |  | < 1e-05 | 
A6U A33U G38U | < 1e-05 | < 1e-05 |  |  | < 1e-05
A6G G13C U31G A39C U45G | < 1e-05 |  |  | < 1e-05 | 
A6G A12C G35A G41U C71A | < 1e-05 |  |  |  | 
A6G G32A G37C U46G C58A C67G | 0.000232 ± 6.3e-05 |  |  | 0.000132 ± 3.3e-05 | 0.000494 ± 0.00014
G7A A42G C70U | < 1e-05 |  | < 1e-05 |  | 
A6U C11G G29C U45C | < 1e-05 |  |  |  | 
G7C C11A C50U U54C C58A C70A | 0.000371 ± 0.00013 |  |  |  | 
A6C U31C C68G | < 1e-05 |  |  |  | 
A6C U30G C50G U56C C68A | 7.1e-05 ± 2.5e-05 |  |  | 0.000356 ± 0.00016 | 
G7A C8A A42C U69A | < 1e-05 |  |  | < 1e-05 | 
A6G U46G C50G U65G C70A | < 1e-05 |  |  |  | 
A6G A42U C58U | < 1e-05 |  |  |  | 
G7A G62C | < 1e-05 | < 1e-05 | < 1e-05 |  | < 1e-05
A6G C11U G32C | < 1e-05 |  |  |  | 
G7A U46C | < 1e-05 |  |  | < 1e-05 | < 1e-05
G7A U57G C61A | < 1e-05 |  |  |  | 

Variant | self-cleavage kobs at 40 uM GlcN6P (glucosamine-6-phosphate [1]) [s⁻¹] | self-cleavage kobs at 160 uM GlcN6P (glucosamine-6-phosphate [2]) [s⁻¹] | self-cleavage kobs at 2500 uM GlcN6P (glucosamine-6-phosphate [3]) [s⁻¹] | self-cleavage kobs at 10000 uM GlcN6P (glucosamine-6-phosphate [4]) [s⁻¹] | self-cleavage kobs at 640 uM GlcN6P (glucosamine-6-phosphate [5]) [s⁻¹]
A6G U31C C71U | < 1e-05 |  |  |  | 
G7C C16G C61A | < 1e-05 |  | < 1e-05 | < 1e-05 | < 1e-05
G7C A12G | < 1e-05 |  | < 1e-05 | < 1e-05 | 
A6C G7C A39C G41C C61U | < 1e-05 |  |  |  | 
A6U G32C G41U | < 1e-05 |  |  |  | 
A6C C10U A33G G41U U47G U55C | < 1e-05 |  |  | < 1e-05 | < 1e-05
A6U G43A G59A G60U | < 1e-05 |  |  |  | 
A6G G60U | < 1e-05 | < 1e-05 |  |  | < 1e-05
A6C G51C | < 1e-05 | < 1e-05 | < 1e-05 | < 1e-05 | < 1e-05
G7A A33U A52U C70U | < 1e-05 |  | < 1e-05 |  | 
A6U G26A A48U A52G | < 1e-05 | < 1e-05 |  |  | 
A6G U46A | < 1e-05 | < 1e-05 |  |  | 
A6G U46G | < 1e-05 | < 1e-05 |  | 7.11e-05 ± 8.7e-06 | 
A6C G41U U65A | < 1e-05 |  |  |  | 
A6U C58A G59C A64G | < 1e-05 |  |  | < 1e-05 | 
A6G A15C U31C A42C | < 1e-05 |  |  | < 1e-05 | 
A6C G9C | < 1e-05 | < 1e-05 | < 1e-05 | < 1e-05 | < 1e-05
A6G G66U | < 1e-05 | < 1e-05 |  |  | < 1e-05
A6U G44C | < 1e-05 | < 1e-05 | < 1e-05 |  | < 1e-05
